Data on 2 molecules can be found in paper PMC10878242 (Journal of Virology, 2024).

What all share (settings): both partners purified
Assay [1] addresses T1, recombinant PCV2 capsid protein (PCV2-Cap) (Porcine circovirus 2, strain of …, UniProt D6R1Z5).
T1 construct: also called monomeric PCV2-Cap
Put plainly: Western blot. Background: A western blot detects proteins with antibodies after separation by electrophoresis.

Assay [2] has as its target PCV2-Cap peptide aa 69–83 (Porcine circovirus 2, PCV2b strain SH). Put plainly: ELISA; synthetic 15-mer peptides coated (1 µg/well); mAb-1E7 or mAb-3G4 added; detection with goat anti-mouse IgG. In general terms: An ELISA detects its analyte on a solid surface through an enzyme-linked reagent.
Assay [3] has as its target PCV2-Cap peptide aa 73–87 (Porcine circovirus 2, PCV2b strain SH). The assay is described as above.
The target of assay [4] is PCV2-Cap peptide aa 75–89 (Porcine circovirus 2, PCV2b strain SH). Described as above.
Assay [5] has as its target PCV2-Cap peptide aa 74–88 (Porcine circovirus 2, PCV2b strain SH). The description is as above.

B1: mAb-3G4 (antibody, V domains shown)
VH: QVTLKESGPGILQPSQTLSLTCSFSGFSLSTSGMVVGWIRQPSGKGLEWLAHIWWDDVKRYNPALKSRLTISKDTSNSQVFLKIASVDTADTATYYCARSPFFAYWGQGTLVTISP
VL: DIQMTQSPSSLSASLGERVSLTCRASQDIGSNLNWLQKRSDGSIKRLIYATSSLDSGVPKRFSGSRSGSDYSLTISSLESEDFVDYYCLQYATSPYTFGGGTKLEIK
Turning to B1, the binding result in assay [1] and in assay [2] was “binds” each time.

B2: mAb-1E7 (antibody, V domains shown)
VH: QIQLVQSGPELKKPGETVKISCKASGYIFTNYGMNWVKQAPGKGFKWMGWINTYTGEPTYVDDFKGRFAFSLETSASTVYLQINNLKNEDTATYFCARSLENWGQGTTLTVSS
VL: DIVMTQAAFSNPVTLGTSASISCRSSKSLLHSNGITYLYWYLQKPGQSPQLLIYQMSNLASGVPDRFSSSGSGTDFTLRISRVEAEDVGVYYCAQNVELPTFGGGTKLEIK
Take B2: the binding result in assay [3], in assay [4] and in assay [5] was “binds” throughout.
